Holding throughout (experiment): SPR
Assay [1] concerns the target T1, human MuSK (human, UniProt O15146).
T1 chain: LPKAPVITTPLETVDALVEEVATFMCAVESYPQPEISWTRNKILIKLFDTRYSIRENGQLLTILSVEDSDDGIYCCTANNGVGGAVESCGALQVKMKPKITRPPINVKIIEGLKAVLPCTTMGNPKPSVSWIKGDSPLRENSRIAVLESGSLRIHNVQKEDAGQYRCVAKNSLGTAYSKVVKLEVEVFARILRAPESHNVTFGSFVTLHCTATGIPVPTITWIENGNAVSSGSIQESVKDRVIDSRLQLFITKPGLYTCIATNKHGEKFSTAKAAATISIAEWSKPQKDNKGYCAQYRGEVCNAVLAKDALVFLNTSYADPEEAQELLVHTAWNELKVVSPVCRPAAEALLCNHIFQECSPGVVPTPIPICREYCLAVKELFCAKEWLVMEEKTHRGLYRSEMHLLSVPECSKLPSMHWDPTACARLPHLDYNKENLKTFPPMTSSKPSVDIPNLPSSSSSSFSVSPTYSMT

Assay [2] addresses T1, human MuSK.
A further assay addresses T2, rat MuSK (rat, UniProt Q62838).
T2 chain: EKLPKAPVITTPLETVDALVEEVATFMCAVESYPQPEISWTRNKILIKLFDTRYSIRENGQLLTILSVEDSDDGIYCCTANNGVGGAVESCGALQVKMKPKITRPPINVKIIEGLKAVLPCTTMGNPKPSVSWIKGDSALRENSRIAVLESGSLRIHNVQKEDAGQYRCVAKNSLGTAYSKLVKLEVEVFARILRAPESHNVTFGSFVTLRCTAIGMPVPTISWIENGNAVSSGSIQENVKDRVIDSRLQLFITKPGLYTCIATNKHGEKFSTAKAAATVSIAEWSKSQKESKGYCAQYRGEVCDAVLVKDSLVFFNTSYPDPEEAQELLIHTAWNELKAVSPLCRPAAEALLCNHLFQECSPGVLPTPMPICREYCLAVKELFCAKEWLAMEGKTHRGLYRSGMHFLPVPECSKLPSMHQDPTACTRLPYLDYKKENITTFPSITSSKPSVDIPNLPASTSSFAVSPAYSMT

In assay [3] the target is T1, human MuSK.
In a further assay the target is T3, mouse MuSK (mouse, UniProt Q61006).
T3 chain: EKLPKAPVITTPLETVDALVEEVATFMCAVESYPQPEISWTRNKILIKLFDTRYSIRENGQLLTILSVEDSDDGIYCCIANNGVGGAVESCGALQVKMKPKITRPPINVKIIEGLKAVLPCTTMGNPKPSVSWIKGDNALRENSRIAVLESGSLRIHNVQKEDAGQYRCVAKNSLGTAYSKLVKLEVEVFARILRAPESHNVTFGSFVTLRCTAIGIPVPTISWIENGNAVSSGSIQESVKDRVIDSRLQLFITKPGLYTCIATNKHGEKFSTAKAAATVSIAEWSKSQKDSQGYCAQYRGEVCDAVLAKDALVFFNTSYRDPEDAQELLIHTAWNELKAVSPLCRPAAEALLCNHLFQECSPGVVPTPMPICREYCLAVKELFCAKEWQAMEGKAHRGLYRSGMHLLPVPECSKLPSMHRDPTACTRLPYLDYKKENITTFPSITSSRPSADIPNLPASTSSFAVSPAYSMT

Where two headings read alike, the source gives them in different places. Bridges are numbered along the chain shown (N, C = ends). Where no end group is shown, it is not given here.

B1: MuSK4 PEG11 dimer (peptide)
chain 1: YFPTNVVSLLKSC
chain 2: YFPTNVVSLLKSC
modifications: not fully specified (N-terminus, C-terminus, bridges); cysteine pairing not given here; also: homodimer via Bis-Mal-dPEG11 linker, attachment not given here
The Kd is the concentration at which binding is half-saturated. A lower Kd goes with tighter binding. Molecule B1 showed a dissociation constant Kd with human MuSK [1] of 6.9 nM.

B2: MuSK1Ac PEG3 dimer (protein)
chain 1: YLPEFSWPESFVLFLRQRQRQLGRGAE
chain 2: YLPEFSWPESFVLFLRQRQRQLGRGAE
modifications: also: homodimer via PEG3 linker, attachment not given here, name suffix Ac, meaning not given here
Molecule B2 displayed a dissociation constant Kd with human MuSK [1] of 4.4 nM.

B3: MuSK7 PEG11 dimer (peptide)
chain 1: YPSYHTNVVASLKRC
chain 2: YPSYHTNVVASLKRC
modifications: not fully specified (N-terminus, C-terminus, bridges); cysteine pairing not given here; also: homodimer via Bis-Mal-dPEG11 linker, attachment not given here
In the case of B3, the dissociation constant Kd with human MuSK [1] is 1.3 nM.

B4: MuSK9 PEG11 dimer (peptide)
chain 1: YWYLQPGYVNIVTSYHC
chain 2: YWYLQPGYVNIVTSYHC
modifications: not fully specified (N-terminus, C-terminus, bridges); cysteine pairing not given here; also: homodimer via Bis-Mal-dPEG11 linker, attachment not given here
For the molecule B4, the Kd with human MuSK [1] was found to be 3.9 nM. The molecule YLPEFSWPESFVLFLRQRQRQLGRGAE (also: name suffix Ac, meaning not given here) [MuSK1Ac] returned a Kd in the assay with human MuSK [2] of 1.6 nM. In other words, the single-digit nanomolar range.

B5: MuSK4 PEG3 dimer (peptide)
chain 1: YFPTNVVSLLKSC
chain 2: YFPTNVVSLLKSC
modifications: not fully specified (N-terminus, C-terminus, bridges); cysteine pairing not given here; also: homodimer via PEG3 linker, attachment not given here
In the assay with human MuSK [1], B5 registered a dissociation constant (Kd) of 6.8 nM. This lies in the single-digit nanomolar range.

B6: MuSK1Ac Term PEG3 dimer (protein)
chain 1: YLPEFSWPESFVLFLRQRQRQLGRGAE
chain 2: YLPEFSWPESFVLFLRQRQRQLGRGAE
modifications: also: homodimer via terminal PEG3 linker, terminus not given here, name suffix Ac, meaning not given here
As for B6, binding in the assay with human MuSK [1] was put at a Kd of 6 nM.

B7: MuSK7 PEG3 dimer (peptide)
chain 1: YPSYHTNVVASLKRC
chain 2: YPSYHTNVVASLKRC
modifications: not fully specified (N-terminus, C-terminus, bridges); cysteine pairing not given here; also: homodimer via PEG3 linker, attachment not given here
Molecule B7 showed a Kd in the assay with human MuSK [1] of 0.62 nM.

B8: MuSK1 (peptide)
chain: YLPEFSWPESFVLFLRQRQRQLGRGAE
modifications: not fully specified (bridges); also: thioether macrocycle stated, places not given here
Turning to B8, in the assay with human MuSK [2], the equilibrium dissociation constant (Kd) was 2.2 nM. On to {CH2CO}-YPSYHTNVVASLKRC (thioether N-15 (inferred); not fully specified (C-terminus)) [MuSK7], for which, in the assay with human MuSK [2], the affinity, expressed as Kd, was 160 nM.

B9: MuSK7-pal (peptide)
chain 1: YPSYHTNVVASLKRC
chain 2: YPSYHTNVVASLKRC
modifications: macrocyclic homodimer with palmitoyl group
Take B9: the Kd worked out at 2 nM with rat MuSK, 0.9 nM with human MuSK [3] and 8.8 nM with mouse MuSK.

B10: MuSK9 PEG3 dimer (peptide)
chain 1: YWYLQPGYVNIVTSYHC
chain 2: YWYLQPGYVNIVTSYHC
modifications: not fully specified (N-terminus, C-terminus, bridges); cysteine pairing not given here; also: homodimer via PEG3 linker, attachment not given here
In turn, B10 displayed a Kd with human MuSK [1] of 2.1 nM.

B11: MuSK1Ac PEG11 dimer (protein)
chain 1: YLPEFSWPESFVLFLRQRQRQLGRGAE
chain 2: YLPEFSWPESFVLFLRQRQRQLGRGAE
modifications: also: homodimer via PEG11 linker, attachment not given here, name suffix Ac, meaning not given here
Regarding B11, the Kd with human MuSK [1] worked out at 1.5 nM.

B12: MuSK1Ac Term PEG11 dimer (protein)
chain 1: YLPEFSWPESFVLFLRQRQRQLGRGAE
chain 2: YLPEFSWPESFVLFLRQRQRQLGRGAE
modifications: also: homodimer via terminal PEG11 linker, terminus not given here, name suffix Ac, meaning not given here
In the assay with human MuSK [1], B12 showed a dissociation constant (Kd) of 3.6 nM. The molecule {CH2CO}-YFPTNVVSLLKSC (thioether N-13 (inferred); not fully specified (C-terminus)) [MuSK4] registered a dissociation constant (Kd) with human MuSK [2] of 250 nM.

Values taken from patent publication US20260374820 (published 2026).
